From the DeepSol protein solubility set

experiment: soluble on expression in E. coli; label from the status in PepcDB or PDB records

| Sequence | soluble on expression in E. coli |
| --- | --- |
| MEIPVIEPLFTKVTEDIPGAAGPVFDKNGDFYIVAPYVEVNGKPAGEILRIDLKTGKKTVICKPEVNGYGGIPIGCQCDRDANQLFVADMRLGLLVVQTDGTFEEIAKKDSEGRRMQGCAYCAFDYEGNLWITAPAGEVAPADFTISLQEKFGSIYCFTTDGQMIQVDTAFQAPAGIAVRHMNDGRPYQLIVAEQPTKKLWSYDIKGPAKIENKKVWGHIPGTHKGGAAGMDFDEDNNLLVANWGSSHIEVFGPDGGQPKMRIRCPFEKPSALHFKPQTKTIFVTEHENNAVWKFEWQRNGKKQYCETLKFGIFGSLEHHHHHH | soluble |
| MEIQFLGTGAGQPAKARNVSSLVLKLLDELNEIWMFDCGEGTQRQILETTIKPRKIRKIFITHLHGDHVFGLPGFLSSRAFQANDEQTDVDIYGPVGIKHLVMASIRTSGAHLPYHIHFHEFDAKHLGKILETDKFMVYAEKLDHTIFCVGYRVVQKDLEGTLDAEKLKAAGLPFGPLFGRVKNGQDVVLEDGTTIIAKDYISAPKKGKVITILGDTRKTDASIRLALGADVLVHESTYSKGDENLARRHGHSTNTEAARVAKAASVKKLLLNHISARFLSHDISRMRDDAQEIFTDVHIVRDLEEVKLLEHHHHHH | not soluble |
| MEIRVKCRCGEEECSEWAIVELQGVVETQASFQGSIQNLEIGRLCHSDSSQGTYTFTVGYHELVGSKVTLKKPLLVLKKLQFDEVSGKATELEVVGIIRTKILFKTRPKPLISGNNNLSLFCS | not soluble |
| MEIVYKPLDIRNEEQFASIKKLIDADLSEPYSIYVYRYFLNQWPELTYIAVDNKSGTPNIPIGCIVCKMDPHRNVRLRGYIGMLAVESTYRGHGIAKKLVEIAIDKMQREHCDEIMLETEVENSAALNLYEGMGFIRMKRMFRYYLNEGDAFKLILPLTEKSCTRSTFLMHGRLAT | not soluble |
| MEKEAFMEKLLSFMKEEAYKPLTVQELEEMLNITEAEEFKELVKALVALEEKGLIVRTRSDRYGIPEKMNLIKGKISAHAKGFAFLLPEDTSLSDVFIPPNELNTAMNGDIVMVRLNSQSSGSRQEGTVIRILERAIQRVVGTYTETRNFGFVIPDDKKITSDIFIPKNGKNGAAEGHKVVVKLTSYPEGRMNAEGEVETILGHKNDPGIDILSVIHKHGLPGEFPADAMEQASSTPDTIDEKDLKDRRDLRDQVIVTIDGADAKDLDDAVTVTKLDDGSYKLGVHIADVSHYVTENSPIDKEALERGTSVYLVDRVIPMIPHRLSNGICSLNPKVDRLTLSCEMTINSQGQVTEHEIFQSVIKTTERMTYSDVNKILVDDDEELKQKYEPLVPMFKDMERLAQILRDKRMDRGAVDFDFKEAKVLVDDEGAVKDVVIRERSVAEKLIEEFMLVANETVAEHFHWMNVPFIYRIHEEPNAEKLQKFLEFVTTFGYVVKGTAGNIHPRALQSILDAVRDRPEETVISTVMLRSMKQAKYDPQSLGHFGLSTEFYTHFTSPIRRYPDLIVHRLIRTYLINGKVDEATQEKWAERLPDIAEHTSSMERRAVDAERETDDLKKAEYMLDKIGEEFDGMISSVTNFGMFVELPNTIEGLVHVSFMTDDYYRFDEQHFAMIGERTGNVFRIGDEITVKVVDVNKDERNIDFEIVGMKGTPRRPRELDSSRSRKRGKPARKRVQSTNTPVSPAPSEEKGEWFTKPKKKKKKRGFQNAPKQKRKKKKLEHHHHHH | not soluble |
| MEKERETLQAWKERVGQELDRVMAFWLEHSHDREHGGFFTCLGRDGRVYDDLKYVWLQGRQVWMYCRLYRKLERFHRPELLDAAKAGGEFLLRHARVAPPEKKCAFVLTRDGRPVKVQRSIFSECFYTMAMNELWRVTAEARYQSEAVDMMDQIVHWVREDPSGLGRPQLPGAVASESMAVPMMLLCLVEQLGEEDEELAGRYAQLGHWCARRILQHVQRDGQAVLENVSEDGEELSGCLGRHQNPGHALEAGWFLLRHSSRSGDAKLRAHVIDTFLLLPFRSGWDADHGGLFYFQDADGLCPTQLEWAMKLWWPHSEAMIAFLMGYSESGDPALLRLFYQVAEYTFRQFRDPEYGEWFGYLNREGKVALTIKGGPFKGCFHVPRCLAMCEEMLSALLSRLA | soluble |
| MEKGWKRADLHVHTTCSFDVLPAKDLNPLSLYEKSLEIGMDFVTFTDHDTVEAYEILGWDREKLTPGAEMTLYDPEFAGHTLHINVFELDREYFSELREIAEIEHDLKSFTGYLKRHRLPFVYNHPFWFEFHRQPNPSAVPKLAKLFPVLEYNMHELKQKNELTIALAERFGKSIVATTDTHTGKMGQVYTLAKGDSFREYFRNIEKGRNYIVTGDLTRELLIEEMNTWIDLIFEKSQKNRDIKNYLTGIKSLDALVKISRSTLLNYSPRLNRTAMNLFYMISNTGLPASFYIHSEKSFAREIEKDIEINNRK | not soluble |
| MEKKKLTTAAGAPVVDNNNVITAGPRGPMLLQDVWFLEKLAHFDREVIPERRMFAKGSGAFGTFTVTHDITKYTRAKIFSEVGKKTEMFARFSTVAGERGAADAERDIRGFALKFYTEEGNWDMVGNNTPVFYLRDPLKFPDLNHIVKRDPRTNMRNMAYKWDFFSHLPESLHQLTIDMSDRGLPLSYRFVHGFGSHTYSFINKDNERFWVKFHFRCQQGIKNLMDDEAEALVGKDRESSQRDLFEAIERGDYPRWKLQIQIMPEKEASTVPYNPFDLTKVWPHADYPLMDVGYFELNRNPDNYFSDVEQAAFSPANIVPGISFSPDKMLQGRLFSYGDAHRYRLGVNHHQIPVNAPKCPFHNYHRDGAMRVDGNSGNGITYEPNSGGVFQEQPDFKEPPLSIEGAADHWNHREDEDYFSQPRALYELLSDDEHQRMFARIAGELSQASKETQQRQIDLFTKVHPEYGAGVEKAIKVLEGKDAK | soluble |
| MEKKKVAEWLAQGSIAVPKLLLGHYKQLGLGEGELVLLLHMQSFFEEGVLFPTPAELAERMTVSAAECMEMVRRLLQKGMIAIEEHTDEQGIRNEKYTLEPLWEKLVHHLYTQAAQQGELGRQEEEES | soluble |
| MEKKPWEEDISIEEFKKSLNKDKITNLIIKRRWNKGKSTYHLSFNGDFEVVTKKPSTKYVTHKQLDQKLKEFKQDLMVELHDTFATKADLRDSEARINQKLEALVQVVLLHGEQINKLTQIVEKQGEQIRELQVEQKAQRQEFNARMDRLENLLVESIESTNKRFDSIEGRLDSMDSRLDSMENRLDSIEGRLDSVEGRLDSVEGRLDSMENRLDSMETRLDKIDPPK | soluble |
| MEKSEGGDQPESAGEKEQVHQGADQQVQREKRRRSVSPDGGDVGSVKMADVVLEGASDVAVTKKRKITEEAAAAAKVNSEAITSATGPNTSTQAAASANEEDDKDKEDDKDAKKKKNRCGECRKKVGLTGFQCRCGGLYCAVHRYSDKHNCTFDYREHGAQEIRRNNPVVVGEKIQKILEHHHHHH | not soluble |
| MEKTPAETTAVSAGNVPRDSIPCITNVSADTRGRTRPSRPATVPQRRPARIGHFRRRSASLSFLDWPDGSVTEGVRTTSASVAASAARFDEIRRRRQSINDEMKERTLEDALAVELVNETFRCSVTSDARKDLQKLVRRVSGTVLRLSWPNGWFFTYCDLLRVGYFGHLNIKGLEKTFLCCDKFLPGLEHHHHHH | not soluble |
| MEKVKVKNPIVELDGDEMARVMWKMIKEKLILPYLDIQLVYFDLGIKKRDETDDQITIEAAKAIKKYGVGVKCATITPDAERVKEYNLKKAWKSPNATIRAYLDGTVFRKPIMVKNVPPLVKRWKKPIIIGRHAYGDIYNAVEAKVEGPAEVELVVRNKENKTLLVHKFEGNGVVMAMHNLEKSIRSFAQSCINYAISEKVDIWFATKDTISKVYHAYFKDIFQEEVDKRKEELEKAGVNYRYMLIDDAAAQILRSEGGMLWACMNYEGDIMSDMIASGFGSLGLMTSVLVSPDGVYEFEAAHGTVRRHYYRYLKGEKTSTNPTASIFAWTGAIRKRGELDGTPEVCEFADKLEKAVINTIESGVITKDLQPFTEPPIDKYVTLEEFIDEVKKNLEKLL | soluble |
| MELAAGSFSEEQFWEACAELQQPALAGADWQLLVETSGISIYRLLDKKTGLYEYKVFGVLEDCSPTLLADIYMDSDYRKQWDQYVKELYEQECNGETVVYWEVKYPFPMSNRDYVYLRQRRDLDMEGRKIHVILARSTSMPQLGERSGVIRVKQYKQSLAIESDGKKGSKVFMYYFDNPGGQIPSWLINWAAKNGVPNFLKDMARACQNYLKKT | soluble |
| MELKDDDFEKISELGAGNGGVVFKVSHKPSGLVMARKLIHLEIKPAIRNQIIRELQVLHECNSPYIVGFYGAFYSDGEISICMEHMDGGSLDQVLKKAGRIPEQILGKVSIAVIKGLTYLREKHKIMHRDVKPSNILVNSRGEIKLCDFGVSGQLIDSMANSFVGTRSYMSPERLQGTHYSVQSDIWSMGLSLVEMAVGRYPIPPPDAKELELMFGCQVEGDAAETPPRPRTPGRPLSSYGMDSRPPMAIFELLDYIVNEPPPKLPSGVFSLEFQDFVNKCLIKNPAERADLKQLMVHAFIKRSDAEEVDFAGWLCSTIGLNQPSTPTHAAGVLEHHHHHH | soluble |
| MELKYVIPNMEKTFGQLEYAGEGNIEQRRINGRPTILSRSYNLYSTIQRADDIVVILPSEAGEKHFESDEKVKLINPHITAEGYKIGNRGFTNYIMHADDMVKALEHHHHHH | not soluble |
| MELLQGKTFVVMGVANQRSIAWGIARSLHNAGAKLIFTYAGERLERNVRELADTLEGQESLVLPCDVTNDEELTACFETIKQEVGTIHGVAHCIAFANRDDLKGEFVDTSRDGFLLAQNISAFSLTAVAREAKKVMTEGGNILTLTYLGGERVVKNYNVMGVAKASLEASVKYLANDLGQHGIRVNAISAGPIRTLSAKGVGDFNSILREIEERAPLRRTTTQEEVGDTAVFLFSDLARGVTGENIHVDSGYHILG | soluble |
| MELSLSRVHFPVTTLGPGRRLGIWFQGCSIRCPGCISADTWGPGRRRIALARLLADIQPWLEQAEGITVSGGEPFEQFAALLALLGELRRRSRADILVYSGYPLEHLHAQLEQAAGLIDALISDPYQQHAEQSLALRGSDNQRLSLLTELGRARLGGYQRPLREDDKALDLMFDHDGSVWMAGIPRRDDLLRLQDLLREQGHQLSVSAHRPR | not soluble |
| MELVVKSVAAASVKTATLVIPVGENRKLGAVAKAVDLASEGAISAVLKRGDLAGKPGQTLLLQNLQGLKAERVLLVGSGKDEALGDRTWRKLVASVAGVLKGLNGADAVLALDDVAVNNRDAHYGKYRLLAETLLDGEYVFDRFKSQKVEPRALKKVTLLADKAGQAEVERAVKHASAIATGMAFTRDLGNLPPNLCHPSFLAEQAKELGKAHKALKVEVLDEKKIKDLGMGAFYAVGQGSDQPPRLIVLNYQGGKKADKPFVLVGKGITFDTGGISLKPGAGMDEMKYDMCGAASVFGTLRAVLELQLPVNLVCLLACAENMPSGGATRPGDIVTTMSGQTVEILNTDAEGRLVLCDTLTYAERFKPQAVIDIATLTGACIVALGSHTTGLMGNNDDLVGQLLDAGKRADDRAWQLPLFDEYQEQLDSPFADMGNIGGPKAGTITAGCFLSRFAKAYNWAHMDIAGTAWISGGKDKGATGRPVPLLTQYLLDRAGA | soluble |
| MENDMKSLSAAAQACVKKMRDAKVNEACIRTFIAQHVMVSKGETGSIPDSAIMPVDSLDALDSLTIECDNAVLQSTVVLKLNGGLGTGMGLCDAKTLLEVKDGKTFLDFTALQVQYLRQHCSEHLRFMLMDSFNTSASTKSFLKARYPWLYQVFDSEVELMQNQVPKILQDTLEPAAWAENPAYEWAPPGHGDIYTALYGSGKLQELVEQGYRYMFVSNGDNLGATIDKRVLAYMEKEKIDFLMEVCRRTESDKKGGHLARQTVYVKGKDGQPDAEKRVLLLRESAQCPKADMESFQDINKYSFFNTNNLWIRLPVLLETMQEHGGTLPLPVIRNEKTVDSSNSASPKVYQLETAMGAAIAMFESASAIVVPRSRFAPVKTCADLLALRSDAYVVTDDFRLVLDDRCHGHPPVVDLDSAHYKMMNGFEKLVQHGVPSLVECKRVTVKGLVQFGAGNVLTGTVTIENTDSASAFVIPDGAKLNDTTASPQQSTNKMRPLEHHHHHH | soluble |
